Results as given in the array DNA melting data of Ke et al..

Test: melting temperature; melt of duplexes
Details: sodium 0.0675 M; strand 1 µM

Substance	Tm [°C]
CGACGTGCCAGATGTGCTG+CAGCACATCTCGCACGTCG ((((((((.((((((((((+)))))))))).))))))))	55.9
CGACGTGCTGTATGTGCTG+CAGCACATCTGGCACGTCG ((((((((...((((((((+))))))))...))))))))	50.9
CGACGTGCGGCATGTGCTG+CAGCACATATCGCACGTCG (((((((((..((((((((+))))))))..)))))))))	54.7
CGACGTGCAGGATGTGCTG+CAGCACATGACGCACGTCG ((((((((...((((((((+))))))))...))))))))	47.3
CGACGTGCGAAATGTGCTG+CAGCACATCGTGCACGTCG ((((((((...((((((((+))))))))...))))))))	44.7
CGACGTGCCGGATGTGCTG+CAGCACATTACGCACGTCG ((((((((...((((((((+))))))))...))))))))	50.1
CGACGTGCTCCATGTGCTG+CAGCACATCAGGCACGTCG ((((((((...((((((((+))))))))...))))))))	48.6
CGACGTGCCTGATGTGCTG+CAGCACATATGGCACGTCG (((((((((..((((((((+))))))))..)))))))))	55.8
CGACGTGCCGTATGTGCTG+CAGCACATGTGGCACGTCG (((((((((..((((((((+))))))))..)))))))))	55.7
CGACGTGCGAGATGTGCTG+CAGCACATCGCGCACGTCG (((((((((.(((((((((+))))))))).)))))))))	62.5
CGACGTGCGGTATGTGCTG+CAGCACATCTTGCACGTCG ((((((((...((((((((+))))))))...))))))))	50.7
CGACGTGCTTTATGTGCTG+CAGCACATGGAGCACGTCG (((((((((..((((((((+))))))))..)))))))))	54.2
CGACGTGCTAGATGTGCTG+CAGCACATCTTGCACGTCG ((((((((.((((((((((+)))))))))).))))))))	58.7
CGACGTGCCGCATGTGCTG+CAGCACATATAGCACGTCG ((((((((...((((((((+))))))))...))))))))	48.2
CGACGTGCTGCATGTGCTG+CAGCACATCCAGCACGTCG ((((((((((.((((((((+)))))))).))))))))))	55.9
CGACGTGCGGGATGTGCTG+CAGCACATAGCGCACGTCG (((((((((..((((((((+))))))))..)))))))))	57.4
CGACGTGCTGTATGTGCTG+CAGCACATTCCGCACGTCG ((((((((.(.((((((((+)))))))).).))))))))	50.1
CGACGTGCCTTATGTGCTG+CAGCACATCGAGCACGTCG ((((((((...((((((((+))))))))...))))))))	48.3
CGACGTGCTTTATGTGCTG+CAGCACATTGTGCACGTCG ((((((((...((((((((+))))))))...))))))))	45.1
CGACGTGCCCGATGTGCTG+CAGCACATACCGCACGTCG ((((((((...((((((((+))))))))...))))))))	47.7
CGACGTGCCGAATGTGCTG+CAGCACATAGTGCACGTCG ((((((((...((((((((+))))))))...))))))))	45.9
CGACGTGCTTCATGTGCTG+CAGCACATCCCGCACGTCG ((((((((...((((((((+))))))))...))))))))	47.5
CGACGTGCGAGATGTGCTG+CAGCACATGATGCACGTCG ((((((((...((((((((+))))))))...))))))))	53.2
CGACGTGCTCTATGTGCTG+CAGCACATCTAGCACGTCG (((((((((..((((((((+))))))))..)))))))))	50.6

Substance	Tm [°C]
CGACGTGCCCAATGTGCTG+CAGCACATGATGCACGTCG ((((((((...((((((((+))))))))...))))))))	49.7
CGACGTGCCCCATGTGCTG+CAGCACATAAAGCACGTCG ((((((((...((((((((+))))))))...))))))))	47.7
CGACGTGCACCATGTGCTG+CAGCACATTGGGCACGTCG ((((((((.(.((((((((+)))))))).).))))))))	52.5
CGACGTGCCGTATGTGCTG+CAGCACATGCTGCACGTCG ((((((((.(.((((((((+)))))))).).))))))))	51.2
CGACGTGCGTCATGTGCTG+CAGCACATCTCGCACGTCG (((((((((..((((((((+))))))))..)))))))))	52.4
CGACGTGCGTGATGTGCTG+CAGCACATCAGGCACGTCG ((((((((.((((((((((+)))))))))).))))))))	59.6
CGACGTGCCCAATGTGCTG+CAGCACATCAGGCACGTCG (((((((((..((((((((+))))))))..)))))))))	53.9
CGACGTGCGAGATGTGCTG+CAGCACATCCTGCACGTCG ((((((((..(((((((((+)))))))))..))))))))	55.6
CGACGTGCCAGATGTGCTG+CAGCACATGTGGCACGTCG ((((((((((.((((((((+)))))))).))))))))))	60
CGACGTGCTGTATGTGCTG+CAGCACATGTAGCACGTCG (((((((((..((((((((+))))))))..)))))))))	53.3
CGACGTGCCCCATGTGCTG+CAGCACATAAGGCACGTCG (((((((((..((((((((+))))))))..)))))))))	52.7
CGACGTGCAATATGTGCTG+CAGCACATCATGCACGTCG (((((((((..((((((((+))))))))..)))))))))	50.3
CGACGTGCGTGATGTGCTG+CAGCACATCGCGCACGTCG (((((((((.(((((((((+))))))))).)))))))))	63.6
CGACGTGCAATATGTGCTG+CAGCACATGAAGCACGTCG ((((((((...((((((((+))))))))...))))))))	52.3
CGACGTGCTAGATGTGCTG+CAGCACATAATGCACGTCG ((((((((...((((((((+))))))))...))))))))	50.6
CGACGTGCAGTATGTGCTG+CAGCACATAATGCACGTCG (((((((((.(((((((((+))))))))).)))))))))	57
CGACGTGCCCCATGTGCTG+CAGCACATTTTGCACGTCG ((((((((...((((((((+))))))))...))))))))	46.6
CGACGTGCTATATGTGCTG+CAGCACATTAGGCACGTCG ((((((((...((((((((+))))))))...))))))))	51.4
CGACGTGCATTATGTGCTG+CAGCACATCTCGCACGTCG ((((((((...((((((((+))))))))...))))))))	47.1
CGACGTGCTAGATGTGCTG+CAGCACATTCAGCACGTCG (((((((((..((((((((+))))))))..)))))))))	52.8
CGACGTGCAAAATGTGCTG+CAGCACATCGCGCACGTCG ((((((((...((((((((+))))))))...))))))))	48.9
CGACGTGCCCCATGTGCTG+CAGCACATGGCGCACGTCG ((((((((.((((((((((+)))))))))).))))))))	57.3
CGACGTGCTCTATGTGCTG+CAGCACATTACGCACGTCG ((((((((...((((((((+))))))))...))))))))	47.8
CGACGTGCACTATGTGCTG+CAGCACATGGCGCACGTCG ((((((((.(.((((((((+)))))))).).))))))))	50.3

Substance	Tm [°C]
CGACGTGCCTGATGTGCTG+CAGCACATATCGCACGTCG ((((((((...((((((((+))))))))...))))))))	47.7
CGACGTGCTCTATGTGCTG+CAGCACATCTGGCACGTCG ((((((((...((((((((+))))))))...))))))))	49.5
CGACGTGCGTTATGTGCTG+CAGCACATTGCGCACGTCG (((((((((..((((((((+))))))))..)))))))))	55.7
CGACGTGCCAAATGTGCTG+CAGCACATACGGCACGTCG (((((((((..((((((((+))))))))..)))))))))	53.2
CGACGTGCGGCATGTGCTG+CAGCACATTATGCACGTCG ((((((((...((((((((+))))))))...))))))))	49
CGACGTGCCTAATGTGCTG+CAGCACATCTTGCACGTCG ((((((((...((((((((+))))))))...))))))))	48
CGACGTGCGTCATGTGCTG+CAGCACATGGCGCACGTCG (((((((((.(((((((((+))))))))).)))))))))	63.5
CGACGTGCCGGATGTGCTG+CAGCACATTAGGCACGTCG (((((((((..((((((((+))))))))..)))))))))	57
CGACGTGCTATATGTGCTG+CAGCACATCCGGCACGTCG ((((((((...((((((((+))))))))...))))))))	49
CGACGTGCCAAATGTGCTG+CAGCACATCTAGCACGTCG ((((((((.(.((((((((+)))))))).).))))))))	49.3
CGACGTGCGTAATGTGCTG+CAGCACATACGGCACGTCG ((((((((...((((((((+))))))))...))))))))	52.6
CGACGTGCGCCATGTGCTG+CAGCACATATTGCACGTCG ((((((((...((((((((+))))))))...))))))))	47.3
CGACGTGCCGAATGTGCTG+CAGCACATACAGCACGTCG ((((((((.(.((((((((+)))))))).).))))))))	50.4
CGACGTGCGTAATGTGCTG+CAGCACATGTAGCACGTCG ((((((((...((((((((+))))))))...))))))))	58.1
CGACGTGCTCCATGTGCTG+CAGCACATCGGGCACGTCG ((((((((.(.((((((((+)))))))).).))))))))	51.2
CGACGTGCGTAATGTGCTG+CAGCACATATGGCACGTCG ((((((((...((((((((+))))))))...))))))))	51
CGACGTGCAATATGTGCTG+CAGCACATATTGCACGTCG (((((((((((((((((((+)))))))))))))))))))	61.2
CGACGTGCAACATGTGCTG+CAGCACATCTGGCACGTCG ((((((((.(.((((((((+)))))))).).))))))))	48.9
CGACGTGCGGGATGTGCTG+CAGCACATGCCGCACGTCG ((((((((((.((((((((+)))))))).))))))))))	63.7
CGACGTGCAACATGTGCTG+CAGCACATGTCGCACGTCG ((((((((.((((((((((+)))))))))).))))))))	57.8
CGACGTGCTTCATGTGCTG+CAGCACATTGTGCACGTCG ((((((((...((((((((+))))))))...))))))))	44.4
CGACGTGCGCGATGTGCTG+CAGCACATAAAGCACGTCG ((((((((...((((((((+))))))))...))))))))	54
CGACGTGCGGAATGTGCTG+CAGCACATAAGGCACGTCG ((((((((...((((((((+))))))))...))))))))	51.5
CGACGTGCTCTATGTGCTG+CAGCACATAGTGCACGTCG ((((((((.((((((((((+)))))))))).))))))))	54.1
